# Source: publication PMC5797543
# Tests used:
# [1] = biological target: recombinant HLA-B*15:01 (heavy chain with human β2-microglobulin light chain) (human)
# [2] = biological target: recombinant HLA-A*01:01 (heavy chain with human β2-microglobulin light chain) (human)
"melting temperature (Tm) of the purified p/MHC complex, differential scanning fluorimetry [1] [°C]","thermal stability (Tm) of the purified p/MHC complex, differential scanning fluorimetry [2] [°C]",Binder
53.4,46.7,AQDIYRASY [ALK R1275Q-derived nonamer neoepitope (…)]
59.3,47.9,AQDIYRASYY [ALK R1275Q-derived decamer neoepitope (…)]
